These results are taken from paper PMC7809502.

For test [1], the target named is genome-edited CXCL12-HiBiT (human (endogenous in HEK293)) (UniProt P48061). Briefly: split reporter (BiFC, NanoBiT); NLuc complementation luminescence: supernatants from HEK293 cells expressing genome-edited CXCL12-HiBiT incubated with increasing concentrations of purified LgBiT; vehicle.
Test [2] has the same target. The experiment in a line: split reporter (BiFC, NanoBiT); NLuc complementation luminescence: live HEK293 cells expressing genome-edited CXCL12-HiBiT incubated with increasing concentrations of purified LgBiT; with surfen (10 uM). For orientation: HiBiT is a short tag that completes a luciferase, so light tracks the accessible tagged protein.
Test [3] shares this target. Briefly: split reporter (BiFC, NanoBiT); NLuc complementation luminescence: live HEK293 cells expressing genome-edited CXCL12-HiBiT incubated with increasing concentrations of purified LgBiT; vehicle.
For test [4] the target is unchanged. Briefly: split reporter (BiFC, NanoBiT); NLuc complementation luminescence: supernatants from HEK293 cells expressing genome-edited CXCL12-HiBiT incubated with increasing concentrations of purified LgBiT; with heparan sulfate (30 ug/mL).
The next test addresses purified HiBiT. Briefly: split reporter (BiFC, NanoBiT); NLuc complementation luminescence: purified HiBiT (1 nM) incubated with increasing concentrations of purified LgBiT; vehicle.
In test [5] the target is genome-edited CXCL12-HiBiT (human (endogenous in HEK293)) (UniProt P48061). Briefly: split reporter (BiFC, NanoBiT); NLuc complementation luminescence: supernatants from HEK293 cells expressing genome-edited CXCL12-HiBiT incubated with increasing concentrations of purified LgBiT; with surfen (10 uM).

As to LgBiT (18 kDa NLuc fragment), the dissociation constant (Kd) in test [1] was determined as 17.5 nM; in test [2] it was 5.93 nM; in test [3] it was 11.6 nM; in test [4], 16.1 nM; with purified HiBiT, 7.15 nM; in test [5], 7.46 nM.

By Kd is commonly meant the constant that tells how readily two partners part at equilibrium.
